Experimental findings from patent US20140242077A1 (AbbVie / Abbott, published 2014) are described below.

Assay in all cases: flow cytometry on activated human T-cells
A general note: A flow cytometer gives signals particle by particle.

For one experiment, the target named is T1, PD1 (human, UniProt Q15116 25-288).
T1 construct: whole, on cells; The intended T-cell surface marker of the PD1 variable domains; also called programmed cell death protein 1
As for the experimental part: (§1) PBMCs were isolated from heparinized leukopaks by use of Ficoll density gradient centrifugation. PBMCs were stimulated overnight with CD2/CD3/CD28 beads from a T-Cell Activation/Expansion Kit (Miltenyi Biotech, Germany) according to the manufacturer's protocol. Activated T-cells were incubated with primary antibody for 1 hour at 4° C., washed in PBS, and then incubated for 30 minutes with fluorescently-labeled secondary anti-Fc specific antibody (Jackson ImmunoResearch, West Grove, Pa.). Activated T-cell samples were analyzed on a FACSCantoII cytometer (BD) and data were analyzed with FlowJo software. Geometric mean fluorescence intensity was compared to DVD-Ig protein concentration by graphing in the GraphPad Prism software package (see FIG. 14).

The next experiment deals with T2, 4-1BB (human, UniProt Q07011 24-255).
T2 construct: whole, on cells; The intended T-cell surface marker of the 41BB variable domains; also called CD137; TNFRSF9
T2 sequence (Q07011 24-255): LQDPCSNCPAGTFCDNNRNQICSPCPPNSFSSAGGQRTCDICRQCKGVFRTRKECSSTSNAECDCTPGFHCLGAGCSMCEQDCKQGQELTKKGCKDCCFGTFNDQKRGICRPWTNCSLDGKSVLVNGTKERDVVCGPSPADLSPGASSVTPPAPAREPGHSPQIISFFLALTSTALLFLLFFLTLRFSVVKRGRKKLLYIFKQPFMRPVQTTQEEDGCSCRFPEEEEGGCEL
Here is the method:
as §1

For another experiment, the target named is T3, LAG3 (human, UniProt P18627 23-525).
T3 construct: whole, on cells; The intended T-cell surface marker of the LAG3 variable domains
T3 sequence (looked up): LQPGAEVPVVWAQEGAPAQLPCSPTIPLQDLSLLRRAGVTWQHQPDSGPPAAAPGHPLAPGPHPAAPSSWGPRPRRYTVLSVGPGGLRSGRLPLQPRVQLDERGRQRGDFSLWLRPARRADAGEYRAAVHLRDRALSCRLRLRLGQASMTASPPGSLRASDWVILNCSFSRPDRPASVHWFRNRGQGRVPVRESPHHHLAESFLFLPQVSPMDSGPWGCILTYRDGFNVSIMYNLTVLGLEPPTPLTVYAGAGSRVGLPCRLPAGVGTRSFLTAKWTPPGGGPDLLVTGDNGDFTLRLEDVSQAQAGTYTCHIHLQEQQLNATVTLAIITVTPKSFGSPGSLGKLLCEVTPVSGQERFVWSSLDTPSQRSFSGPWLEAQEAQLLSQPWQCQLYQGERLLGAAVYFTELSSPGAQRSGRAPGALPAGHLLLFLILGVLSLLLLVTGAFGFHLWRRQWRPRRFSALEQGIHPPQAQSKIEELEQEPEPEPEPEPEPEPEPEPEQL
As for the experimental part: as §1

T1 sequence (Q15116 25-288): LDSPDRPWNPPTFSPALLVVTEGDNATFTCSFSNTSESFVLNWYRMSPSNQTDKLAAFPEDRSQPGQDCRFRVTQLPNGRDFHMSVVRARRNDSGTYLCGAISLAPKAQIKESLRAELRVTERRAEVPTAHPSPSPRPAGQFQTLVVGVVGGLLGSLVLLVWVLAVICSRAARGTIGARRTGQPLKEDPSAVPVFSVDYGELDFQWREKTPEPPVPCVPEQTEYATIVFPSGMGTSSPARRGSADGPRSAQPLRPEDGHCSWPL

B1: DVD2555 (bispecific antibody)
VH: QVQLVESGGGVVQPGRSLRLDCKASGITFSNSGMHWVRQAPGKGLEWVAVIWYDGSKRYYADSVKGRFTISRDNSKNTLFLQMNSLRAEDTAVYYCATNDDYWGQGTLVTVSSASTKGPQVQLQQWGAGLLKPSETLSLTCAVYGGSFSDYYWNWIRQPPGKGLEWIGEINHNGNTNSNPSLKSRVTLSLDTSKNQFSLKLRSVTAADTAVYYCAFGYSDYEYNWFDPWGQGTLVTVSS
VL: EIVLTQSPATLSLSPGERATLSCRASQSVSSYLAWYQQKPGQAPRLLIYDASNRATGIPARFSGSGSGTDFTLTISSLEPEDFAVYYCQQSSNWPRTFGQGTKVEIKRTVAAPEIVLTQSPATLSLSPGERATLSCRASQSISSYLAWYQQKPGQAPRLLIYDASNRATGIPARFSGSGSGTDFTLTISSLEPEDFAVYYCQQRSNWPLTFGQGTNLEIKR
notes: Four-chain DVD-Ig; also called DVD2555H/DVD2555L; PD1/LAG3 DVD-Ig
On to B1, for which, in the experiment with PD1, the binding result was “binds”.

B2: DVD2557 (bispecific antibody)
VH: QVQLQQWGAGLLKPSETLSLTCAVYGGSFSDYYWNWIRQPPGKGLEWIGEINHNGNTNSNPSLKSRVTLSLDTSKNQFSLKLRSVTAADTAVYYCAFGYSDYEYNWFDPWGQGTLVTVSSASTKGPQVQLVESGGGVVQPGRSLRLDCKASGITFSNSGMHWVRQAPGKGLEWVAVIWYDGSKRYYADSVKGRFTISRDNSKNTLFLQMNSLRAEDTAVYYCATNDDYWGQGTLVTVSS
VL: EIVLTQSPATLSLSPGERATLSCRASQSISSYLAWYQQKPGQAPRLLIYDASNRATGIPARFSGSGSGTDFTLTISSLEPEDFAVYYCQQRSNWPLTFGQGTNLEIKRTVAAPEIVLTQSPATLSLSPGERATLSCRASQSVSSYLAWYQQKPGQAPRLLIYDASNRATGIPARFSGSGSGTDFTLTISSLEPEDFAVYYCQQSSNWPRTFGQGTKVEIKR
notes: Four-chain DVD-Ig; also called DVD2557H/DVD2557L; LAG3/PD1 DVD-Ig
Regarding B2, the binding result in the experiment with PD1 was “binds”.

B3: DVD2556 (bispecific antibody)
VH: QVQLVESGGGVVQPGRSLRLDCKASGITFSNSGMHWVRQAPGKGLEWVAVIWYDGSKRYYADSVKGRFTISRDNSKNTLFLQMNSLRAEDTAVYYCATNDDYWGQGTLVTVSSASTKGPSVFPLAPQVQLQQWGAGLLKPSETLSLTCAVYGGSFSDYYWNWIRQPPGKGLEWIGEINHNGNTNSNPSLKSRVTLSLDTSKNQFSLKLRSVTAADTAVYYCAFGYSDYEYNWFDPWGQGTLVTVSS
VL: EIVLTQSPATLSLSPGERATLSCRASQSVSSYLAWYQQKPGQAPRLLIYDASNRATGIPARFSGSGSGTDFTLTISSLEPEDFAVYYCQQSSNWPRTFGQGTKVEIKRTVAAPEIVLTQSPATLSLSPGERATLSCRASQSISSYLAWYQQKPGQAPRLLIYDASNRATGIPARFSGSGSGTDFTLTISSLEPEDFAVYYCQQRSNWPLTFGQGTNLEIKR
notes: Four-chain DVD-Ig; also called DVD2556H/DVD2556L; PD1/LAG3 DVD-Ig
For the molecule B3, in the experiment with PD1, the binding result was “binds”.

B4: DVD2567 (bispecific antibody)
VH: QVQLQQWGAGLLKPSETLSLTCAVYGGSFSGYYWSWIRQSPEKGLEWIGEINHGGYVTYNPSLESRVTISVDTSKNQFSLKLSSVTAADTAVYYCARDYGPGNYDWYFDLWGRGTLVTVSSASTKGPQVQLQQWGAGLLKPSETLSLTCAVYGGSFSDYYWNWIRQPPGKGLEWIGEINHNGNTNSNPSLKSRVTLSLDTSKNQFSLKLRSVTAADTAVYYCAFGYSDYEYNWFDPWGQGTLVTVSS
VL: EIVLTQSPATLSLSPGERATLSCRASQSVSSYLAWYQQKPGQAPRLLIYDASNRATGIPARFSGSGSGTDFTLTISSLEPEDFAVYYCQQRSNWPPALTFGGGTKVEIKRTVAAPEIVLTQSPATLSLSPGERATLSCRASQSISSYLAWYQQKPGQAPRLLIYDASNRATGIPARFSGSGSGTDFTLTISSLEPEDFAVYYCQQRSNWPLTFGQGTNLEIKR
notes: Four-chain DVD-Ig; also called DVD2567H/DVD2567L; 41BB/LAG3 DVD-Ig
As for B4, the binding result with 4-1BB and in the experiment with LAG3 was “binds” each time.

B5: DVD2568 (bispecific antibody)
VH: QVQLQQWGAGLLKPSETLSLTCAVYGGSFSGYYWSWIRQSPEKGLEWIGEINHGGYVTYNPSLESRVTISVDTSKNQFSLKLSSVTAADTAVYYCARDYGPGNYDWYFDLWGRGTLVTVSSASTKGPSVFPLAPQVQLQQWGAGLLKPSETLSLTCAVYGGSFSDYYWNWIRQPPGKGLEWIGEINHNGNTNSNPSLKSRVTLSLDTSKNQFSLKLRSVTAADTAVYYCAFGYSDYEYNWFDPWGQGTLVTVSS
VL: EIVLTQSPATLSLSPGERATLSCRASQSVSSYLAWYQQKPGQAPRLLIYDASNRATGIPARFSGSGSGTDFTLTISSLEPEDFAVYYCQQRSNWPPALTFGGGTKVEIKRTVAAPEIVLTQSPATLSLSPGERATLSCRASQSISSYLAWYQQKPGQAPRLLIYDASNRATGIPARFSGSGSGTDFTLTISSLEPEDFAVYYCQQRSNWPLTFGQGTNLEIKR
notes: Four-chain DVD-Ig; also called DVD2568H/DVD2568L; 41BB/LAG3 DVD-Ig
Take B5: the binding result in the experiment with 4-1BB and in the experiment with LAG3 was “binds” throughout.

B6: DVD2569 (bispecific antibody)
VH: QVQLQQWGAGLLKPSETLSLTCAVYGGSFSDYYWNWIRQPPGKGLEWIGEINHNGNTNSNPSLKSRVTLSLDTSKNQFSLKLRSVTAADTAVYYCAFGYSDYEYNWFDPWGQGTLVTVSSASTKGPQVQLQQWGAGLLKPSETLSLTCAVYGGSFSGYYWSWIRQSPEKGLEWIGEINHGGYVTYNPSLESRVTISVDTSKNQFSLKLSSVTAADTAVYYCARDYGPGNYDWYFDLWGRGTLVTVSS
VL: EIVLTQSPATLSLSPGERATLSCRASQSISSYLAWYQQKPGQAPRLLIYDASNRATGIPARFSGSGSGTDFTLTISSLEPEDFAVYYCQQRSNWPLTFGQGTNLEIKRTVAAPEIVLTQSPATLSLSPGERATLSCRASQSVSSYLAWYQQKPGQAPRLLIYDASNRATGIPARFSGSGSGTDFTLTISSLEPEDFAVYYCQQRSNWPPALTFGGGTKVEIKR
notes: Four-chain DVD-Ig; also called DVD2569H/DVD2569L; LAG3/41BB DVD-Ig
For B6, the binding result with 4-1BB and with LAG3 was “binds” each time.

B7: DVD2570 (bispecific antibody)
VH: QVQLQQWGAGLLKPSETLSLTCAVYGGSFSDYYWNWIRQPPGKGLEWIGEINHNGNTNSNPSLKSRVTLSLDTSKNQFSLKLRSVTAADTAVYYCAFGYSDYEYNWFDPWGQGTLVTVSSASTKGPSVFPLAPQVQLQQWGAGLLKPSETLSLTCAVYGGSFSGYYWSWIRQSPEKGLEWIGEINHGGYVTYNPSLESRVTISVDTSKNQFSLKLSSVTAADTAVYYCARDYGPGNYDWYFDLWGRGTLVTVSS
VL: EIVLTQSPATLSLSPGERATLSCRASQSISSYLAWYQQKPGQAPRLLIYDASNRATGIPARFSGSGSGTDFTLTISSLEPEDFAVYYCQQRSNWPLTFGQGTNLEIKRTVAAPEIVLTQSPATLSLSPGERATLSCRASQSVSSYLAWYQQKPGQAPRLLIYDASNRATGIPARFSGSGSGTDFTLTISSLEPEDFAVYYCQQRSNWPPALTFGGGTKVEIKR
notes: Four-chain DVD-Ig; also called DVD2570H/DVD2570L
On to B7, for which the binding result with 4-1BB and in the experiment with LAG3 was “binds” each time.
